Measurements taken from US20230406951A1 (Pfizer, published 2023).

T1: human TNFR2 (human, UniProt P20333 23-461)
T1 construct: expressed on the surface of CHO cells; also called HuTNFR2; TNFRSF1B
T1 sequence: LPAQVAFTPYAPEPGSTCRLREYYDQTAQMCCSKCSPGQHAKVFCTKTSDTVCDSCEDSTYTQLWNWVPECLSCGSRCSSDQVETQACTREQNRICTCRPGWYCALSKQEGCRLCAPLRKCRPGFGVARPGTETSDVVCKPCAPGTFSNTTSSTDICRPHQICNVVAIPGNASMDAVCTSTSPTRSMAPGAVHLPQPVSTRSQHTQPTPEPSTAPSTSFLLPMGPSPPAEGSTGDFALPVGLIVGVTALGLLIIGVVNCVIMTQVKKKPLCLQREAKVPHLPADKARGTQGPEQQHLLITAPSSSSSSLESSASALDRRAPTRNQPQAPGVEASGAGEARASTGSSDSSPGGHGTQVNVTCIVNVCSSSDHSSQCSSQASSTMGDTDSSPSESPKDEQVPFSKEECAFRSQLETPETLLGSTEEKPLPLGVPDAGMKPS

B1: TetraFab 2173 (antibody)
heavy: QVQLVQSGAEVKKPGASVKVSCKVSGFSFPSSGVDWVRQAPGQGLEWLGVTLGHGSTHYNQKFQGRVTITKDTSKSTVYMELSSLRSEDTAVYYCASGEWDEGFVYWGQGTLVTVSSASTKGPSVFPLAPSSKSTSGGTAALGCLVKDYFPEPVTVSWNSGALTSGVHTFPAVLQSSGLYSLSSVVTVPSSSLGTQTYICNVNHKPSNTKVDKKVEPKSCGGGGSQVQLVQSGAEVKKPGASVKVSCKVSGFSFPSSGVDWVRQAPGQGLEWLGVTLGHGSTHYNQKFQGRVTITKDTSKSTVYMELSSLRSEDTAVYYCASGEWDEGFVYWGQGTLVTVSSASTKGPSVFPLAPSSKSTSGGTAALGCLVKDYFPEPVTVSWNSGALTSGVHTFPAVLQSSGLYSLSSVVTVPSSSLGTQTYICNVNHKPSNTKVDKKVEPKSCDKTHTCPPCPAPEAAGAPSVFLFPPKPKDTLMISRTPEVTCVVVDVSHEDPEVKFNWYVDGVEVHNAKTKPREEQYNSTYRVVSVLTVLHQDWLNGKEYKCKVSNKALPAPIEKTISKAKGQPREPQVYTLPPSREEMTKNQVSLTCLVKGFYPSDIAVEWESNGQPENNYKTTPPVLDSDGSFFLYSKLTVDKSRWQQGNVFSCSVMHEALHNHYTQKSLSLSPGK
light: DIQLTQSPSFLSASVGDRVTITCKASQNVGTAVAWYQQKPGKAPKLLIYAASTLQSGVPSRFSGSGSGTEFTLTISSLQPEDFATYYCLQYSSYPLTFGGGTKVEIKRTVAAPSVFIFPPSDEQLKSGTASVVCLLNNFYPREAKVQWKVDNALQSGNSQESVTEQDSKDSTYSLSSTLTLSKADYEKHKVYACEVTHQGLSSPVTKSFNRGEC
notes: TetraFab
B2: TetraFab 2176 (antibody)
heavy: QVQLVQSGAEVKKPGASVKVSCKVSGFSFPSSGVDWVRQAPGQGLEWLGVTWGVGSTHYNQKFQGRVTITKDTSKSTVYMELSSLRSEDTAVYYCASGEHDEGFVYWGQGTLVTVSSASTKGPSVFPLAPSSKSTSGGTAALGCLVKDYFPEPVTVSWNSGALTSGVHTFPAVLQSSGLYSLSSVVTVPSSSLGTQTYICNVNHKPSNTKVDKKVEPKSCGGGGSQVQLVQSGAEVKKPGASVKVSCKVSGFSFPSSGVDWVRQAPGQGLEWLGVTWGVGSTHYNQKFQGRVTITKDTSKSTVYMELSSLRSEDTAVYYCASGEHDEGFVYWGQGTLVTVSSASTKGPSVFPLAPSSKSTSGGTAALGCLVKDYFPEPVTVSWNSGALTSGVHTFPAVLQSSGLYSLSSVVTVPSSSLGTQTYICNVNHKPSNTKVDKKVEPKSCDKTHTCPPCPAPEAAGAPSVFLFPPKPKDTLMISRTPEVTCVVVDVSHEDPEVKFNWYVDGVEVHNAKTKPREEQYNSTYRVVSVLTVLHQDWLNGKEYKCKVSNKALPAPIEKTISKAKGQPREPQVYTLPPSREEMTKNQVSLTCLVKGFYPSDIAVEWESNGQPENNYKTTPPVLDSDGSFFLYSKLTVDKSRWQQGNVFSCSVMHEALHNHYTQKSLSLSPGK
light: DIQLTQSPSFLSASVGDRVTITCKASQNVGTAVAWYQQKPGKAPKLLIYAASTLQSGVPSRFSGSGSGTEFTLTISSLQPEDFATYYCLQYSSYPLTFGGGTKVEIKRTVAAPSVFIFPPSDEQLKSGTASVVCLLNNFYPREAKVQWKVDNALQSGNSQESVTEQDSKDSTYSLSSTLTLSKADYEKHKVYACEVTHQGLSSPVTKSFNRGEC
notes: TetraFab
B3: TetraFab 2174 (antibody)
heavy: QVQLVQSGAEVKKPGASVKVSCKVSGFSFPSSGVDWVRQAPGQGLEWLGVTHGSGSTHYNQKFQGRVTITKDTSKSTVYMELSSLRSEDTAVYYCASGEWDEGFVYWGQGTLVTVSSASTKGPSVFPLAPSSKSTSGGTAALGCLVKDYFPEPVTVSWNSGALTSGVHTFPAVLQSSGLYSLSSVVTVPSSSLGTQTYICNVNHKPSNTKVDKKVEPKSCGGGGSQVQLVQSGAEVKKPGASVKVSCKVSGFSFPSSGVDWVRQAPGQGLEWLGVTHGSGSTHYNQKFQGRVTITKDTSKSTVYMELSSLRSEDTAVYYCASGEWDEGFVYWGQGTLVTVSSASTKGPSVFPLAPSSKSTSGGTAALGCLVKDYFPEPVTVSWNSGALTSGVHTFPAVLQSSGLYSLSSVVTVPSSSLGTQTYICNVNHKPSNTKVDKKVEPKSCDKTHTCPPCPAPEAAGAPSVFLFPPKPKDTLMISRTPEVTCVVVDVSHEDPEVKFNWYVDGVEVHNAKTKPREEQYNSTYRVVSVLTVLHQDWLNGKEYKCKVSNKALPAPIEKTISKAKGQPREPQVYTLPPSREEMTKNQVSLTCLVKGFYPSDIAVEWESNGQPENNYKTTPPVLDSDGSFFLYSKLTVDKSRWQQGNVFSCSVMHEALHNHYTQKSLSLSPGK
light: DIQLTQSPSFLSASVGDRVTITCKASQNVGTAVAWYQQKPGKAPKLLIYAASTLQSGVPSRFSGSGSGTEFTLTISSLQPEDFATYYCLQYSSYPLTFGGGTKVEIKRTVAAPSVFIFPPSDEQLKSGTASVVCLLNNFYPREAKVQWKVDNALQSGNSQESVTEQDSKDSTYSLSSTLTLSKADYEKHKVYACEVTHQGLSSPVTKSFNRGEC
notes: TetraFab
B4: TetraFab 2175 (antibody)
heavy: QVQLVQSGAEVKKPGASVKVSCKVSGFSFPSSGVDWVRQAPGQGLEWLGVTWGVGSTHYNQKFQGRVTITKDTSKSTVYMELSSLRSEDTAVYYCASGESTEGFVYWGQGTLVTVSSASTKGPSVFPLAPSSKSTSGGTAALGCLVKDYFPEPVTVSWNSGALTSGVHTFPAVLQSSGLYSLSSVVTVPSSSLGTQTYICNVNHKPSNTKVDKKVEPKSCGGGGSQVQLVQSGAEVKKPGASVKVSCKVSGFSFPSSGVDWVRQAPGQGLEWLGVTWGVGSTHYNQKFQGRVTITKDTSKSTVYMELSSLRSEDTAVYYCASGESTEGFVYWGQGTLVTVSSASTKGPSVFPLAPSSKSTSGGTAALGCLVKDYFPEPVTVSWNSGALTSGVHTFPAVLQSSGLYSLSSVVTVPSSSLGTQTYICNVNHKPSNTKVDKKVEPKSCDKTHTCPPCPAPEAAGAPSVFLFPPKPKDTLMISRTPEVTCVVVDVSHEDPEVKFNWYVDGVEVHNAKTKPREEQYNSTYRVVSVLTVLHQDWLNGKEYKCKVSNKALPAPIEKTISKAKGQPREPQVYTLPPSREEMTKNQVSLTCLVKGFYPSDIAVEWESNGQPENNYKTTPPVLDSDGSFFLYSKLTVDKSRWQQGNVFSCSVMHEALHNHYTQKSLSLSPGK
light: DIQLTQSPSFLSASVGDRVTITCKASQNVGTAVAWYQQKPGKAPKLLIYAASTLQSGVPSRFSGSGSGTEFTLTISSLQPEDFATYYCLQYSSYPLTFGGGTKVEIKRTVAAPSVFIFPPSDEQLKSGTASVVCLLNNFYPREAKVQWKVDNALQSGNSQESVTEQDSKDSTYSLSSTLTLSKADYEKHKVYACEVTHQGLSSPVTKSFNRGEC
notes: TetraFab
B5: TetraFab 2179 (antibody)
heavy: QVQLVQSGAEVKKPGASVKVSCKVSGFSFPSSGVDWVRQAPGQGLEWLGVTKGQGSTHYNQKFQGRVTITKDTSKSTVYMELSSLRSEDTAVYYCASGESTEGFVYWGQGTLVTVSSASTKGPSVFPLAPSSKSTSGGTAALGCLVKDYFPEPVTVSWNSGALTSGVHTFPAVLQSSGLYSLSSVVTVPSSSLGTQTYICNVNHKPSNTKVDKKVEPKSCGGGGSQVQLVQSGAEVKKPGASVKVSCKVSGFSFPSSGVDWVRQAPGQGLEWLGVTKGQGSTHYNQKFQGRVTITKDTSKSTVYMELSSLRSEDTAVYYCASGESTEGFVYWGQGTLVTVSSASTKGPSVFPLAPSSKSTSGGTAALGCLVKDYFPEPVTVSWNSGALTSGVHTFPAVLQSSGLYSLSSVVTVPSSSLGTQTYICNVNHKPSNTKVDKKVEPKSCDKTHTCPPCPAPEAAGAPSVFLFPPKPKDTLMISRTPEVTCVVVDVSHEDPEVKFNWYVDGVEVHNAKTKPREEQYNSTYRVVSVLTVLHQDWLNGKEYKCKVSNKALPAPIEKTISKAKGQPREPQVYTLPPSREEMTKNQVSLTCLVKGFYPSDIAVEWESNGQPENNYKTTPPVLDSDGSFFLYSKLTVDKSRWQQGNVFSCSVMHEALHNHYTQKSLSLSPGK
light: DIQLTQSPSFLSASVGDRVTITCKASQNVGTAVAWYQQKPGKAPKLLIYAASTLQSGVPSRFSGSGSGTEFTLTISSLQPEDFATYYCLQYSSYPLTFGGGTKVEIKRTVAAPSVFIFPPSDEQLKSGTASVVCLLNNFYPREAKVQWKVDNALQSGNSQESVTEQDSKDSTYSLSSTLTLSKADYEKHKVYACEVTHQGLSSPVTKSFNRGEC
notes: TetraFab
B6: TetraFab 2182 (antibody)
heavy: QVQLVQSGAEVKKPGASVKVSCKVSGFSFPSSGVDWVRQAPGQGLEWLGVTKGQGSTHYNQKFQGRVTITKDTSKSTVYMELSSLRSEDTAVYYCASGEQDEGFVYWGQGTLVTVSSASTKGPSVFPLAPSSKSTSGGTAALGCLVKDYFPEPVTVSWNSGALTSGVHTFPAVLQSSGLYSLSSVVTVPSSSLGTQTYICNVNHKPSNTKVDKKVEPKSCGGGGSQVQLVQSGAEVKKPGASVKVSCKVSGFSFPSSGVDWVRQAPGQGLEWLGVTKGQGSTHYNQKFQGRVTITKDTSKSTVYMELSSLRSEDTAVYYCASGEQDEGFVYWGQGTLVTVSSASTKGPSVFPLAPSSKSTSGGTAALGCLVKDYFPEPVTVSWNSGALTSGVHTFPAVLQSSGLYSLSSVVTVPSSSLGTQTYICNVNHKPSNTKVDKKVEPKSCDKTHTCPPCPAPEAAGAPSVFLFPPKPKDTLMISRTPEVTCVVVDVSHEDPEVKFNWYVDGVEVHNAKTKPREEQYNSTYRVVSVLTVLHQDWLNGKEYKCKVSNKALPAPIEKTISKAKGQPREPQVYTLPPSREEMTKNQVSLTCLVKGFYPSDIAVEWESNGQPENNYKTTPPVLDSDGSFFLYSKLTVDKSRWQQGNVFSCSVMHEALHNHYTQKSLSLSPGK
light: DIQLTQSPSFLSASVGDRVTITCKASQNVGTAVAWYQQKPGKAPKLLIYAASTLQSGVPSRFSGSGSGTEFTLTISSLQPEDFATYYCLQYSSYPLTFGGGTKVEIKRTVAAPSVFIFPPSDEQLKSGTASVVCLLNNFYPREAKVQWKVDNALQSGNSQESVTEQDSKDSTYSLSSTLTLSKADYEKHKVYACEVTHQGLSSPVTKSFNRGEC
notes: TetraFab

Each binder was assayed against T1, human TNFR2 (assay: binding to human TNFR2 CHO cells).

Binding result, no binding:
B1
B2
B3
B4
B5
B6
